In US20220056125A1 (CEPHALON, published 2022):
Several values for one entry are separate records, joined by “and”; a condition that tells them apart may be missing. Equal values may be shown once.

Columns and labels:
human PAR-1 = target: T1, human PAR-1 (human, UniProt P25116 22-425); assay: flow cytometry, transfected Expi293F cells
T1 construct: also called huPAR-1
T1 sequence: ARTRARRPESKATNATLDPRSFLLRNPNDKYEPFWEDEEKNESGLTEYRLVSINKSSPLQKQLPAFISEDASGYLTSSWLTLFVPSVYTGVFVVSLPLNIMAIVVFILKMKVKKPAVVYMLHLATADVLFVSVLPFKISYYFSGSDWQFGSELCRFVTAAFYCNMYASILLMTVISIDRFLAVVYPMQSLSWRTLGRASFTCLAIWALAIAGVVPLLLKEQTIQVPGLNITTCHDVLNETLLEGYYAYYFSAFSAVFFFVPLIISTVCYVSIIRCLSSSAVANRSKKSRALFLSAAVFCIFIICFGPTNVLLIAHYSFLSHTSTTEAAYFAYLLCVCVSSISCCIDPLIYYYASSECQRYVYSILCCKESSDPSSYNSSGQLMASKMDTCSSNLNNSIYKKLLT
Protocol: Paired heavy and light chains encoded by these sequence pairs were expressed as a full length human IgG4 isotype antibodies and assessed for PAR-2 binding and selectivity by flow cytometry. […] Cells were used for flow cytometric analysis 36-48 hours post-transfection. Use of Nt-PAR-2 as a target allowed antibodies which bound the N-terminal residues of PAR-2 (which comprise the protease-cleavage sites on PAR-2) to be distinguished from antibodies which bound other extracellular sites on PAR-2, such as the PAR-2-activating ligand-binding site(s). Expi293F cells, transiently expressing one of each of the different target proteins were labelled with different intensities of a single fluorphor Encoder dye (Intellicyt) for 10 mins at either 1 in 250 dilution for high intensity and/or 1 in 1500 dilution for moderate intensity, enabling simultaneous analysis of multiple cell populations. After washing the cells were then mixed in an equal ratio with the unlabeled cell type and analyzed for antibody binding.
The cells were plated in 96 well plates at 2×10⁵ cells/well. Following a wash step using Phosphate buffered saline (PBS), the primary antibody (anti-PAR-2 antibody) was added at a concentration of 10 μg/mL in 50 μL of FACS buffer (0.5% w/v BSA in PBS) to each well and incubated for 10-15 mins. Following a wash step, secondary antibody (anti-human Fc-FITC) was added to the wells at 1:200 dilution in 50 μL for 10-15 mins. Following a washing step, the cells were re-suspended in fluorescence-activated cell sorting (FACS) buffer. The flow cytometry analysis was performed on an Intellicyt iQue screener. Gates were drawn around the different intensities of encoder dye-positive cells and these populations were analyzed separately from each other and the unlabeled cells for binding by the primary antibody.

human PAR-2 [1] = target: T2, human PAR-2 (human, UniProt P55085 26-397); assay: cell-based or functional assay
T2 sequence: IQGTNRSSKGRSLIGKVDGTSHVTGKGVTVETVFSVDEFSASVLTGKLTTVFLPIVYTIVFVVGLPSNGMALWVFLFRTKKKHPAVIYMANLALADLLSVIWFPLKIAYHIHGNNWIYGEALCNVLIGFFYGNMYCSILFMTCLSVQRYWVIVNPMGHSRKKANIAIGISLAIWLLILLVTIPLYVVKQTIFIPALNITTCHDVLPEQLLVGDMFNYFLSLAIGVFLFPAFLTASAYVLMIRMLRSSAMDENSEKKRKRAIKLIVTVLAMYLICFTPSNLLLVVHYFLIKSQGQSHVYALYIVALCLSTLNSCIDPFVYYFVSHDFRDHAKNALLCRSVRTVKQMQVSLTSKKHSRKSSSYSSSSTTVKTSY

human PAR-2 [2] = target: T2, human PAR-2; assay: cell-based or functional assay; remark: listed apart in the source
human PAR-2 [3] = target: T2, human PAR-2; assay: cell-based or functional assay; remark: listed apart in the source
human PAR-2 [4] = target: T2, human PAR-2; assay: cell-based or functional assay; remark: listed apart in the source

Binder	binding result (human PAR-1)	IC50, PAR-2 β-arrestin cell assay (human PAR-2 [1])	IC50, PAR-2 calcium flux assay (trypsin EC80) (human PAR-2 [2])	PAR-2 calcium flux cell assay IC50 (human PAR-2 [3])	PAR-2 β-arrestin cell assay IC50, 1 µM SLIGKV (human PAR-2 [3])	PAR-2 β-arrestin cell based assay IC50, 2 µM SLIGKV (human PAR-2 [4])
Ab309 (antibody, human IgG4, V domains shown) VH: QVQLKESGPGLVQPSQTLSLTCTVSGFSLNSYGVIWARQPPGKGLDWMGVIWGNGNTYYNSDLKSRLSISRDTSKSQVFLKMNNLQAEDTALYFCARWRGYKDYPFDYWGQGVMVTVSS VL: DIQMTQSPSFLSASVGDRVTFNCKASQNIYKYLDWYQQKLGEAPKLLIYNTNSLHTGIPSRFSGSGFGTDFTLTISSLQPEDVATYFCLQHNSGWTFGGGTKLELR	no binding (tested: 10 µg/mL)	1.6 nM	6.7 nM	8.6 nM	4.4 nM	–
309-6i (antibody, human IgG4 S228P, kappa, V domains shown) VH: EVQLVESGGGLVQPGGSLRLSCAASGFSLNSYGVIWVRQAPGKGLEWVSVIWGNGNTYYNDSVKGRFTISRDNSKNTLYLQMNSLRAEDTAVYYCARWRGYKDYPFDYWGQGTLVTVSS VL: DIQMTQSPSSLSASVGDRVTITCKASQNIYKYLDWYQQKPGKAPKRLIYNTNSLHTGVPSRFSGSGSGTEFTLTISSLQPEDFATYYCLQHNSGWTFGGGTKVEIKR	–	–	–	–	40.6 nM	–
Ab1 (antibody, human IgG4, V domains shown, also called Anti-PAR-2 antibody # 1) VH: EVQLVEFGGGLVQPKGSLKLSCAASGFTFNTNAMHWVRQAPGKGLEWVARIGSKSSYFATYYADSVKDRFTISRDDSRSMFYLQMNNLKTEDTAMYYCVREDYYGSSFDLWGQGTTLTVSS VL: QIVLSQSPAILSASPGEKVTMTCRASSSLPYIHWYQQKPGSSPRPWIYATSNLASGVPARFSGRGSGTSYSLTISRMEAEDAATYYCQQWSSTPPTFGGGSKLEIK	no binding (tested: 10 µg/mL)	8.4 nM	50.5 nM	–	–	–
Ab39 (antibody, human IgG4, V domains shown, also called Anti-PAR-2 antibody # 39) VH: EVQLVESGGGLVQPKGSLKLSCAASGFTFNTYAMHWVRQAPGKGLEWVARIGSKSSYYATYYADSVKDRFTISRADSQSMLYLQMNNLKTEDTAIYYCVREDYYGCSFDYWGQGTTLTVSS VL: QIVLSQSPVILSTSPGEKVTMTCRANSRVIYVHWYQQKPGSSPKPWIFATSNLASGVPSRFSGSGSGTSYSLTISRVETEDAATYYCQHCGNNPPTFGSGTKLEIK	no binding (tested: 10 µg/mL)	4.9 nM	29 nM	–	–	–
Ab77 (antibody, human IgG4, V domains shown, also called Anti-PAR-2 antibody # 77) VH: EVQLVGSGGGLVQPKGSLKLSCAASGFTFNTYAMHWVRQAPGKGLEWVARIGSKSSYYATYYADSVKDRFTISRDDSQSMLYLQMNNLKTEDTAMYYCVREDYYGSSYDYWGQGTTLTVSS VL: DIVMTQSHKFMSISVGDRVSITCKASQDVGTAVAWHQQKAGQSPKLLIYWASARHTGVPDRFTGSGSGTDFTLTISNVQSEDLTDFFCQQYSNYPFTFGSGTKLEIK	no binding (tested: 10 µg/mL)	16.5 nM	169 nM	–	–	–
309-4e (antibody, human IgG4 S228P, kappa, V domains shown) VH: QVQLVQSGAEVKKPGSSVKVSCKASGFSLNSYGVIWVRQAPGQGLEWMGVIWGNGNTYYNQKFQGRVTITADESTSTAYMELSSLRSEDTAVYYCARWRGYKDYPFDYWGQGTLVTVSS VL: EIVLTQSPATLSLSPGERATLSCKASQNIYKYLDWYQQKPGQAPRLLIYNTNSLHTGIPARFSGSGSGRDFTLTISSLEPEDFAVYYCLQHNSGWTFGGGTKVEIKR	–	–	–	7.6 nM	5.8 nM	2.1 nM and 5.9 nM
309-11e (antibody, human IgG4 S228P, kappa, V domains shown) VH: QVQLQESGPGLVKPSETLSLTCTVSGFSLNSYGVIWIRQPPGKGLEWIGVIWGNGNTYYNPSLKSRVTISVDTSKNQFSLKLSSVTAADTAVYYCARWRGYKDYPFDYWGQGTLVTVSS VL: EIVLTQSPATLSLSPGERATLSCKASQNIYKYLDWYQQKPGQAPRLLIYNTNSLHTGIPARFSGSGSGRDFTLTISSLEPEDFAVYYCLQHNSGWTFGGGTKVEIKR	–	–	–	22.8 nM	6.1 nM	–
309-12e (antibody, human IgG4 S228P, kappa, V domains shown) VH: QVQLQQWGAGLLKPSETLSLTCAVYGFSLNSYGVIWIRQPPGKGLEWIGVIWGNGNTYYNPSLKSRVTISVDTSKNQFSLKLSSVTAADTAVYYCARWRGYKDYPFDYWGQGTLVTVSS VL: EIVLTQSPATLSLSPGERATLSCKASQNIYKYLDWYQQKPGQAPRLLIYNTNSLHTGIPARFSGSGSGRDFTLTISSLEPEDFAVYYCLQHNSGWTFGGGTKVEIKR	–	–	–	8.3 nM	2.3 nM	–
Ab20 (antibody, human IgG4, V domains shown, also called Anti-PAR-2 antibody # 20) VH: EVQLVESGGGLVQPKGSLKLSCAASGFTFNIYAMHWVRQAPGKGLEWVARIGSKSSNYATNYADSVKDRFTISRDDSQSMLCLQMNNLKTEDTAMYYCVREDYYGNSFDSWGQGTTLAVSS VL: QIVLSQSPAILSASPGEKVTMTCRTSSSVIYIHWYQQKSGSSPKPWIYATSNLASGVPTRFSGSGSGTSYSLTISRVEAEDAATYYCHHWRSNPPTFGGGTKLEIK	no binding (tested: 10 µg/mL)	10.7 nM	73.2 nM	–	–	–
